Where two headings read alike, the source gives them in different places. Values belong to the binder of their own block, whether it stands above or below them.
What was measured:
[1] = target: T1, human retinal guanylyl cyclase RetGC1 (human, UniProt Q02846 52-1103)
T1 sequence (looked up): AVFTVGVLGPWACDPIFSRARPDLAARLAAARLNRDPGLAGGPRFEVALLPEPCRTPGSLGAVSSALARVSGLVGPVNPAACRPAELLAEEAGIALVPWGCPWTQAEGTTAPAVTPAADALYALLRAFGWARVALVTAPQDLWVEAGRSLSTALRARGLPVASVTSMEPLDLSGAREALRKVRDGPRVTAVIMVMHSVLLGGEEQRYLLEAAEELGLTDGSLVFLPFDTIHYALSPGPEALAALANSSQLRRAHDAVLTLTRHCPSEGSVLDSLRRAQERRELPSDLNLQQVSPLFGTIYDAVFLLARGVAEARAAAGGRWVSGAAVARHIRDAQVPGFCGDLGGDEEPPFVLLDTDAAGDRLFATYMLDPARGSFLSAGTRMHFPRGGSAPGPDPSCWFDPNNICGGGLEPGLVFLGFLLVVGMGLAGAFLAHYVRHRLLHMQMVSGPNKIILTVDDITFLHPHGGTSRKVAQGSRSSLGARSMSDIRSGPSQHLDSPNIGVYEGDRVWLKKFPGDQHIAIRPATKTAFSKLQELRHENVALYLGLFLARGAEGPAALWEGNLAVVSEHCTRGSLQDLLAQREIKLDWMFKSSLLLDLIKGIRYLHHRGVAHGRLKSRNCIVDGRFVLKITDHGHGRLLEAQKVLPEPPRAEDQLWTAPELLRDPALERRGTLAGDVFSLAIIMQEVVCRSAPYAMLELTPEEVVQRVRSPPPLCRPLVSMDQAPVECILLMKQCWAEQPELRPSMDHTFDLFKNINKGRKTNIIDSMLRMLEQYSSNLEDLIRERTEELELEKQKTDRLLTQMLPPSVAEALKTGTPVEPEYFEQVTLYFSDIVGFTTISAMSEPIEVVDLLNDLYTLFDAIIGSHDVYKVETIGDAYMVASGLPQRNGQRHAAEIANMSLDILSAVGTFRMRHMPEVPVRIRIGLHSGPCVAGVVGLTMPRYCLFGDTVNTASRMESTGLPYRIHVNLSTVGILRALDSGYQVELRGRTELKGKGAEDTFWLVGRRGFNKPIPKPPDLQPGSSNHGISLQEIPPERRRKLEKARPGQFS

[2] = target: the molecule itself; assay: EPR-DEER; spin-labelled (MTSSL) single-Cys GCAP1 at ~300 uM, 10 mM Tris-d11 pH 7.4, 2 mM MgCl2, D2O, 25% glycerol-d8, frozen, 50 or 80 K; Ca2+-free/Mg2+-bound state, similar data in the Ca2+-bound state; intermolecular spin-label distances
[3] = target: the molecule itself; assay: NMR pulsed-field gradient diffusion; translational diffusion coefficient of spin-labelled GCAP1^CL(T29C); molar mass from D
[4] = target: T1, human retinal guanylyl cyclase RetGC1; assay: cell-based or functional assay
[5] = target: the molecule itself; assay: SEC; analytical SEC, Superdex 200 HR 10/30, 100 uL of 200 uM protein, 10 mM Tris pH 7.4, 100 mM NaCl, 1 mM DTT, 4 C, with saturating Mg2+ (2 mM) or Ca2+ (2 mM); molar mass from elution time against protein standards

- EC50 of activation of RetGC1 (HEK293 membranes) in the absence of Ca2+ (EGTA), guanylyl cyclase assay [1]: 14 µM
B1: Cys-less mutant of GCAP1 (GCAP1^CL) (natural protein)
chain: MGNIMSGKSVEELSSTETHQWYKKFMTETPSGQLTLYEFRQFFGLKNLSPWASQYVEQMFETFDFNKDGYIDFMEYVAALSLVLKGKVEQKLRWYFKLYDVDGNGTIDRDELLTIIRAIRAINPTSDSTMTAEEFTDTVFSKIDVNGDGELSLEEFMEGVQKDQMLLDTLTRSLDLTRIVRRLQNGEQDEEGASGRETEAAEADG
modifications: N-terminal myristoylation

B2: GCAP1^CL(E133C), nitroxide spin-labelled (natural protein, bovine, UniProt P46065 1-205, looked up)
chain: MGNIMSGKSVEELSSTETHQWYKKFMTETPSGQLTLYEFRQFFGLKNLSPWASQYVEQMFETFDFNKDGYIDFMEYVAALSLVLKGKVEQKLRWYFKLYDVDGNGTIDRDELLTIIRAIRAINPTSDSTMTACEFTDTVFSKIDVNGDGELSLEEFMEGVQKDQMLLDTLTRSLDLTRIVRRLQNGEQDEEGASGRETEAAEADG
modifications: N-terminal myristoylation; MTSSL nitroxide spin-label on Cys133
notes: GCAP1, bovine, D6S background, Cys-less (all four native Cys C18, C29, C106, C125 to Thr), with a single Cys at 133; source: E. coli BL21(DE3), co-expressed with yeast N-myristoyl CoA transferase, purified, labelled with MTSSL
- binding result [2]: binds

B3: GCAP1^CL(E57C), nitroxide spin-labelled (natural protein, bovine, UniProt P46065 1-205, looked up)
chain: MGNIMSGKSVEELSSTETHQWYKKFMTETPSGQLTLYEFRQFFGLKNLSPWASQYVCQMFETFDFNKDGYIDFMEYVAALSLVLKGKVEQKLRWYFKLYDVDGNGTIDRDELLTIIRAIRAINPTSDSTMTAEEFTDTVFSKIDVNGDGELSLEEFMEGVQKDQMLLDTLTRSLDLTRIVRRLQNGEQDEEGASGRETEAAEADG
modifications: N-terminal myristoylation; MTSSL nitroxide spin-label on Cys57
notes: GCAP1, bovine, D6S background, Cys-less (all four native Cys C18, C29, C106, C125 to Thr), with a single Cys at 57; source: E. coli BL21(DE3), co-expressed with yeast N-myristoyl CoA transferase, purified, labelled with MTSSL
- binding result [2]: binds

B4: GCAP1^CL(T29C), spin-labelled (natural protein, bovine, UniProt P46065 1-205, looked up)
chain: MGNIMSGKSVEELSSTETHQWYKKFMTECPSGQLTLYEFRQFFGLKNLSPWASQYVEQMFETFDFNKDGYIDFMEYVAALSLVLKGKVEQKLRWYFKLYDVDGNGTIDRDELLTIIRAIRAINPTSDSTMTAEEFTDTVFSKIDVNGDGELSLEEFMEGVQKDQMLLDTLTRSLDLTRIVRRLQNGEQDEEGASGRETEAAEADG
modifications: N-terminal myristoylation; MTSSL spin-label on Cys29 (N-O group reduced for the HSQC spectrum)
notes: GCAP1, bovine, D6S background, Cys-less parent (C18, C29, C106, C125 to Thr) in which T29C restores the natural Cys29; also called spin-labeled GCAP1^CL(T29C); source: E. coli BL21(DE3), co-expressed with yeast N-myristoyl CoA transferase, purified, labelled with MTSSL
- stoichiometry N [3]: 4

B5: GCAP1^CL(E154C), nitroxide spin-labelled (natural protein, bovine, UniProt P46065 1-205, looked up)
chain: MGNIMSGKSVEELSSTETHQWYKKFMTETPSGQLTLYEFRQFFGLKNLSPWASQYVEQMFETFDFNKDGYIDFMEYVAALSLVLKGKVEQKLRWYFKLYDVDGNGTIDRDELLTIIRAIRAINPTSDSTMTAEEFTDTVFSKIDVNGDGELSLCEFMEGVQKDQMLLDTLTRSLDLTRIVRRLQNGEQDEEGASGRETEAAEADG
modifications: N-terminal myristoylation; MTSSL nitroxide spin-label on Cys154
notes: GCAP1, bovine, D6S background, Cys-less (all four native Cys C18, C29, C106, C125 to Thr), with a single Cys at 154; source: E. coli BL21(DE3), co-expressed with yeast N-myristoyl CoA transferase, purified, labelled with MTSSL
- binding result [2]: binds

- EC50 of activation of RetGC1 (HEK293 membranes) in the absence of Ca2+ (EGTA), guanylyl cyclase assay [4]: < 2 µM
B6: wild type GCAP1 (recombinant bovine myristoylated guanylyl cyclase activating protein 1, D6S) (natural protein, UniProt P46065 1-205, looked up)
chain: MGNIMSGKSVEELSSTECHQWYKKFMTECPSGQLTLYEFRQFFGLKNLSPWASQYVEQMFETFDFNKDGYIDFMEYVAALSLVLKGKVEQKLRWYFKLYDVDGNGCIDRDELLTIIRAIRAINPCSDSTMTAEEFTDTVFSKIDVNGDGELSLEEFMEGVQKDQMLLDTLTRSLDLTRIVRRLQNGEQDEEGASGRETEAAEADG
modifications: N-terminal myristoylation
notes: 15N-labelled for NMR; also called GCAP1 D6S mutant; source: E. coli BL21(DE3), co-expressed with yeast N-myristoyl CoA transferase, purified
- stoichiometry N [5]: 2

From paper PMC5841803, “Retinal guanylyl cyclase activating protein 1 forms a functional dimer” (PLoS ONE, 2018)
